The source of these data is patent US20050049403A1 (CAMBRIDGE ANTIBODY TECHNOLOGY, published 2005).

In assay [1] the target is T1, recombinant human TGFβ2 (human, UniProt P61812 303-414).
T1 construct: mature; also called TGFbeta2; rhTGFβ2
T1 sequence (looked up): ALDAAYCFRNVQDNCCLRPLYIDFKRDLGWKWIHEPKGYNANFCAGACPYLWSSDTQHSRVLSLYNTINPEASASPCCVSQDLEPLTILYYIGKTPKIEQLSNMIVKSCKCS
Briefly: radioreceptor assay, inhibition of 125I-TGFβ2 binding to A549 cells; concentration of antibody combining sites. As to the method: Cells are seeded at 1-2×10^5 cells/ml/well into the wells of 24-well cluster plates and grown for 24 h in serum-free DMEM. Cell monlayers are washed twice with serum-free DMEM and 0.5 ml binding medium (DMEM/Hams F12 (Sigma D-6421) containing 0.1% (v/v) BSA added to each well.
(§1) Aliqouts of ¹²⁵I-TGFβ1 or TGFβ2 (70-90 TBq/mmol; Amersham International) at 20 pM are preincubated with antibody in binding medium at room temperature for 1 h. Duplicate samples of 0.5 ml of TGFβ/antibody mixtures are then added to the cell monlayers and are incubated at 37° C. for 1-2 h. Control wells contain TGFβ only. Unbound TGFβ is removed by washing 4 times with Hank's balanced salt solution containing 0.1% BSA. Cells are solubilised in 0.8 ml 25 mM Tris HCl pH 7.5, 10% glycerol, 1% Triton X-100 at room temperature for 20 min. The contents of each well are removed and ¹²⁵I measured in a gamma counter.

The target of assay [2] is T1, recombinant human TGFβ2. Briefly: BIAcore 2000, antigen immobilised, antibody as analyte. The procedure: The immobilisation of ligand is automated by the BIACore 2000 machine, and all steps are carried out in the autosampler or in the flowcell, on the dextran surface of the chip. The buffer used throughout the immobilisation procedure, and the analysis of samples is Hepes-buffered saline (HBS) with a surfactant (Pharmacia Biosensor). The chips (Pharmacia, CM5), have dextran coating on a thin layer of gold. NHS at 100 mM and EDC at 400 mM are mixed by the autosampler, and then a fixed volume is injected over the flowcell surface. This is followed by an injection of antigen in a suitable buffer. In the case of TGFβ, a surface of the correct density was given by using 25-30 μg/ml solution of TGFβ2 (AMS) OR TGFβ3 (R & D systems) in 10 mM acetate. After injection of the ligand, the chip is blocked using 1M ethanolamine. The total amount of TGFβ bound was assessed from the total increase in resonance units over this period.
To determine the kinetic parameters, a series of dilutions of the antibody samples was made in HBS from about 500 μg/ml down to less than 1 μg/ml, usually through doubling dilutions. After the antibody has been injected over the antigen surface, the surface is washed with HBS, then regenerated by stripping off the bound antibody with a pulse of 100 mM HCl. At the higher concentrations of antibody the antigen on the chip surface is saturated, and the off rate is determined on washing with buffer in the dissociation phase. For determination of the on-rate, lower concentrations of antibody are used, giving a linear binding phase in the sensorgram, allowing kₒₙ determination.
6B1 IgG4 was purified from the GS/NS0 cell line of Example 10 as in Example 2. 6B1 single chain Fv was expressed intracellularly in E. coli, refolded in vitro (using the methodology of WO94/18227), and purified to give a homogeneous product. The values of kₒₙ and koff were determined for 6B1 IgG4 for binding to both TGFβ2 and TGFβ3, and for the single-chain Fv 6B1 for binding to TGFβ2. The dissociation constant was calculated by dividing koff by kₒₙ.

The target in the next assay is T2, ovalbumin (UniProt P01012 2-386).
T2 sequence (looked up): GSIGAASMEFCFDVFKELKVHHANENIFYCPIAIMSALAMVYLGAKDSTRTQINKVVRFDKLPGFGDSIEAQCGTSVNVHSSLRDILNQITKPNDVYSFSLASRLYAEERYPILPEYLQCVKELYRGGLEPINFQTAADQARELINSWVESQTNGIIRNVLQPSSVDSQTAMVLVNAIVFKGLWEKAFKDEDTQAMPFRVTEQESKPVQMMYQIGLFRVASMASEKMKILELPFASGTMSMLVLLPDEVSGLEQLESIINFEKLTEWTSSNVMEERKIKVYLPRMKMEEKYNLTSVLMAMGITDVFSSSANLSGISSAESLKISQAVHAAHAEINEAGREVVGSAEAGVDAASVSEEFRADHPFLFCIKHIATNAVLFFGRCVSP
Briefly: ELISA, antigen coated at 10 µg/ml, anti-human Fc alkaline phosphatase conjugate, OD405 nm [a]. The procedure: For both FIG. 13(a) and FIG. 13(b), antigens 1 to 15 were used for coating the plate at a concentration of 10 μg/ml in PBS. The TGFbetas were coated at 0.2 μg/ml in PBS. Coating was performed at 4° C. overnight. […] of each antigen was used per well and duplicates of each antigen for each IgG to be tested. IgG samples were incubated with the coated antigens at 37° C. for 2 hours after blocking with 2%. marvel-PBS. The labelled second antibody was a mouse anti-human Fc1 alkaline phosphatase conjugated and the substrate used to detect bound second antibody was PNPP at 1 mg/ml with the absorbance read at 405 nm.
In general terms: ELISA stands for enzyme-linked immunosorbent assay.

Another assay deals with T3, recombinant human TGFβ1 (human, UniProt P01137 279-390).
T3 construct: mature; also called TGFbeta1
Description: A549 cell radioreceptor assay (nM IgG); A549 cell radioreceptor assay; no inhibition up to 400 nM IgG. As to the method: as §1
The ability of 6B1 IgG4 to inhibit binding of TGFβ isoforms to receptors was measured in a radioreceptor assay as described in example 4.

T3 sequence (P01137 279-390 limits assumed): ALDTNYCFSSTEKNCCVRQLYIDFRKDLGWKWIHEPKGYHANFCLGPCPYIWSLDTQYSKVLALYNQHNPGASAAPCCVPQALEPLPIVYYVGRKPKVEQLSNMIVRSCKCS

B1: 6B1 IgG4 (antibody, V domains shown)
VH: EVQLVESGGGVVQPGRSLRLSCAASGFTFSSYGMHWVRQAPGKGLEWVAVIWYDGSNKYYADSVKGRFTISRDNSKNTLYLQMDSLRAEDTAVYYCGRTLESSLWGQGTLVTVSS
VL: SSELTQDPAVSVALGQTVRITCQGDSLRSYYASWYQQKPGQAPVLVIYGKNNRPSGIPDRFSGSSSGNTASLTITGAQAEDEADYYCNSRDSSSTHRGVFGGGTKLTVLG
notes: Whole antibody: human gamma 4 and human lambda constant regions; FITC-labelled in the human tissue study; also called antibody 6B1
With B1, in the assay with recombinant human TGFβ2 [1], the IC50 is 0.6 nM. Moreover, in the assay with recombinant human TGFβ2 [2], the off-rate (koff) was found to be 0.000336 s⁻¹ and the kon is 384000 M⁻¹ s⁻¹. Moreover, the binding result in the assay with ovalbumin was “no binding”. Besides, the IC50 with recombinant human TGFβ1 was over 400 nM.

Usually IC50 stands for the concentration that inhibits the measured activity by half. The term koff denotes a measure of how fast the partners let go of each other. The term kon denotes a measure of how fast the partners come together.
